In the supplement of paper PMC9233669:
Fewer inactive variants are shown than the library holds.

These sequences were tested on biotinyl-Phe-oxazolone (assay: self-aminoacylation, catalytic enhancement (BFO) (fold over background); higher = more active; k-Seq, kA / k0A0; sequences stand for … in GGGAAUGGAUCCACAUCUACGAAUUC…UUCACUGCAGACUUGACGAAGCUG).
How it was run: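 Catalytic enhancement equals the median kA over the uncatalyzed rate, the latter read from the low-activity peak of a bimodal Gaussian fit. Values of kA came from fitting each sequence's fraction reacted to a pseudo-first-order model, with 1000 bootstraps. Reacted RNA was captured with streptavidin and quantified by triplicate qPCR and Illumina sequencing after 90 minutes at room temperature with 2–1250 μM biotinyl-aminoacyl-oxazolone and 0.43 μM mutagenized RNA pools bearing a 21-nt variable region.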

Compared with “CUAGUUCAGACAAUCGGUCUG [Fam1A.1 aminoacylation ribozyme variant]”, “AAGUUGGCUAAUAGUCCCAAG [Fam3.1 aminoacylation ribozyme variant]” is lower in self-aminoacylation: 2.61 for the first, 2.06 for the second.

Compared with “CAGUUUUCUAAUAGUCGCAAG [Fam3.1 aminoacylation ribozyme variant]”, “AUUCACCUGGGUCAUCGGGUC [Fam2.2 aminoacylation ribozyme variant]” is higher in self-aminoacylation: 2.91 for the first, 5.84 for the second.

Compared with “AAGUUUGUUCAUAGUCGCAAG [Fam3.1 aminoacylation ribozyme variant]”, “AUUAGCUUGGUCAUCGAGUGA [Fam2.1 aminoacylation ribozyme variant]” is higher in self-aminoacylation: 2.01 for the first, 2.2 for the second.

Going from “ACGUUUGCUAAUAGUCCCAAG [Fam3.1 aminoacylation ribozyme variant]” to “AAGUUUGCGAAUAGGCGCAAG [Fam3.1 aminoacylation ribozyme variant]”, the self-aminoacylation rises from 2 to 9.76.

Going from “AAGAUUGCUGAUAGUCGCAAG [Fam3.1 aminoacylation ribozyme variant]” to “CAGUUUGCUAAUAGUCGCAGG [Fam3.1 aminoacylation ribozyme variant]”, the self-aminoacylation rises from 2.57 to 3.45.

Going from “AUGUUUGUUAAUAGUCGCAAG [Fam3.1 aminoacylation ribozyme variant]” to “AAGUUAGUUAAUAGUCGCAAG [Fam3.1 aminoacylation ribozyme variant]”, the self-aminoacylation rises from 2.31 to 2.7.

Going from “AAAUUUGCUAAUAGUCGGAAG [Fam3.1 aminoacylation ribozyme variant]” to “AUUCACCUAGGUCGUCGGGUU [Fam2.2 aminoacylation ribozyme variant]”, the self-aminoacylation rises from 2.57 to 3.1.

Going from “UUACUUCAAACAAGCGGUCUG [Fam1A.1 aminoacylation ribozyme variant]” to “CAGUUUGCUAAUAGUCGCAAC [Fam3.1 aminoacylation ribozyme variant]”, the self-aminoacylation falls from 6.3 to 2.78.

Going from “CUACUUCAAACAAGCGGUCGG [Fam1A.1 aminoacylation ribozyme variant]” to “AAGUUUCCUACUAGUCGCAAG [Fam3.1 aminoacylation ribozyme variant]”, the self-aminoacylation falls from 3.68 to 2.54.

First: AGUACCCUGGUCAUCGAGUGC [Fam2.1 aminoacylation ribozyme variant]
Second: UUACUUCAAACAUUCGGUCUG [Fam1A.1 aminoacylation ribozyme variant]
The self-aminoacylation of the first is higher: 2.36 for the first, 2.03 for the second.

Going from “AAGUUUGAUAAUAGUCGCAAU [Fam3.1 aminoacylation ribozyme variant]” to “AUUCACCUAGGUUAUCGUGUG [Fam2.2 aminoacylation ribozyme variant]”, the self-aminoacylation rises from 2.12 to 2.6.

Compared with “GAGUUUGCUGAUAGUCGCAAG [Fam3.1 aminoacylation ribozyme variant]”, “AUUCACCAAGGUCAUCGGGUC [Fam2.2 aminoacylation ribozyme variant]” is lower in self-aminoacylation: 3.71 for the first, 3.27 for the second.

Compared with “AAGUUUCAUAAUAGUCGCAAG [Fam3.1 aminoacylation ribozyme variant]”, “AUUACCCUGGUCAUCAAGUGU [Fam2.1 aminoacylation ribozyme variant]” is higher in self-aminoacylation: 2.19 for the first, 2.34 for the second.

Compared with “CUACUCCAAUCAAUCGGUCUG [Fam1A.1 aminoacylation ribozyme variant]”, “AAGUGUGCUAAUAGUGGCAAG [Fam3.1 aminoacylation ribozyme variant]” is higher in self-aminoacylation: 2.36 for the first, 2.86 for the second.

First: AUUGCCCUGGUCGUCGAGUGA [Fam2.1 aminoacylation ribozyme variant]
Second: AUUUACCUAGGUCAUCGGCUG [Fam2.2 aminoacylation ribozyme variant]
The self-aminoacylation of the first is higher: 8.62 for the first, 2.16 for the second.

First: AUUCUCCUAGGUCAUCGGUUG [Fam2.2 aminoacylation ribozyme variant]
Second: AUGUUUGCGAAUAGUCGCAAG [Fam3.1 aminoacylation ribozyme variant]
The self-aminoacylation of the first is higher: 6.63 for the first, 2.47 for the second.

First: CAGUUUGCUAAUAGUCCCAAG [Fam3.1 aminoacylation ribozyme variant]
Second: AAGUUUUCUAAUAGUCGCUAG [Fam3.1 aminoacylation ribozyme variant]
The self-aminoacylation of the first is lower: 2.32 for the first, 2.43 for the second.

First: AAGUUUGCUAAUAGUCAAAAG [Fam3.1 aminoacylation ribozyme variant]
Second: AAGAUUGCUAACAGUCGCAAG [Fam3.1 aminoacylation ribozyme variant]
The self-aminoacylation of the first is higher: 3.26 for the first, 2.49 for the second.

Going from “AAGUUUUCUAAUAGUCGAAAG [Fam3.1 aminoacylation ribozyme variant]” to “AAGUUUUCUAAUAGUCGUAAG [Fam3.1 aminoacylation ribozyme variant]”, the self-aminoacylation rises from 2 to 2.29.

Going from “AAGUUUGCUAACAGUCGGAAG [Fam3.1 aminoacylation ribozyme variant]” to “CUACUUCAAACCAUCGGUCGG [Fam1A.1 aminoacylation ribozyme variant]”, the self-aminoacylation falls from 6.87 to 3.15.

First: AAGUUUCCUAAUAGUCGCCAG [Fam3.1 aminoacylation ribozyme variant]
Second: CUAGUUCAAACAUUCGGUCUG [Fam1A.1 aminoacylation ribozyme variant]
The self-aminoacylation of the first is lower: 2.94 for the first, 6.01 for the second.

Going from “AAGUUUUCUAAUAGUUGCAAG [Fam3.1 aminoacylation ribozyme variant]” to “AAGUUUGCUAAUAGCCGCAAU [Fam3.1 aminoacylation ribozyme variant]”, the self-aminoacylation falls from 2.94 to 2.22.

First: AAGUUUUCAAAUAGUCGCAAG [Fam3.1 aminoacylation ribozyme variant]
Second: AAGUUUGGUAAUAGUCGCGAG [Fam3.1 aminoacylation ribozyme variant]
The self-aminoacylation of the first is lower: 2.08 for the first, 2.51 for the second.

Going from “AAGUUUGCUGAUAGUCGCAGG [Fam3.1 aminoacylation ribozyme variant]” to “AUUCACCUCGGUCAUCGUGUG [Fam2.2 aminoacylation ribozyme variant]”, the self-aminoacylation rises from 2.42 to 3.14.

Going from “AUGCACCUAGGUCAUCGGGUC [Fam2.2 aminoacylation ribozyme variant]” to “AAUUUUGCUAAUAAUCGCAAG [Fam3.1 aminoacylation ribozyme variant]”, the self-aminoacylation falls from 7.15 to 2.03.

Compared with “AAUCACCUAGGUCAUCGUGUG [Fam2.2 aminoacylation ribozyme variant]”, “AAGUUUGCUAAUAGUUGCGAG [Fam3.1 aminoacylation ribozyme variant]” is lower in self-aminoacylation: 5.37 for the first, 2.61 for the second.

First: CAGUUUGCUAAGAGUCGCAAG [Fam3.1 aminoacylation ribozyme variant]
Second: AAGUUUCCUUAUAGUCGCAAG [Fam3.1 aminoacylation ribozyme variant]
The self-aminoacylation of the first is higher: 2.85 for the first, 2.75 for the second.

First: CUGCUUCAAACAAUCGUUCUG [Fam1A.1 aminoacylation ribozyme variant]
Second: AUUCACCUAGGUCAUCAUGUG [Fam2.2 aminoacylation ribozyme variant]
The self-aminoacylation of the first is lower: 2.08 for the first, 2.12 for the second.

First: AAGUUAGCUAAUAGUCGCUAG [Fam3.1 aminoacylation ribozyme variant]
Second: CUACUGCAAACACUCGGUCUG [Fam1A.1 aminoacylation ribozyme variant]
The self-aminoacylation of the first is lower: 2.36 for the first, 5.64 for the second.

In the case of “AAGUUUGCUAAUGGUCGCAAU [Fam3.1 aminoacylation ribozyme variant]”, the self-aminoacylation is reported as 3.15.
